{"source": "paper PMC10230788", "biological_target": "glucagon receptor (rat ventricular myocardium) (rat (endogenous in Sprague-Dawley rat right ventricle)) (UniProt P30082)", "sequence (P30082 27-485)": "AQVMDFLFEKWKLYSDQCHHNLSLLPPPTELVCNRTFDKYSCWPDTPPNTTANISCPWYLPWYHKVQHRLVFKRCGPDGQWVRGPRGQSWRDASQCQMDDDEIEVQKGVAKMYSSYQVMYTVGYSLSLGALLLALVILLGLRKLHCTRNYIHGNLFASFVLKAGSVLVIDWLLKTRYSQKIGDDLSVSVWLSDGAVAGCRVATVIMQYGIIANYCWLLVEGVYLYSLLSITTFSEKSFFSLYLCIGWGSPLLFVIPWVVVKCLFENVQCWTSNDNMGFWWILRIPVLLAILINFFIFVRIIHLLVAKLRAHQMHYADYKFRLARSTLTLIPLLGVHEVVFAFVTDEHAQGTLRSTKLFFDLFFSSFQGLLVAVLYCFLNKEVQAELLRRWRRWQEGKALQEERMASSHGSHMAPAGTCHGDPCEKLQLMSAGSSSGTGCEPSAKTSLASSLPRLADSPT"}
{"substance": "glucagon (from UniProt P01275 53-81) (ligand)", "values": [{"measurement": "Emax of the inotropic response (percent increase in contractility over baseline) of rat right ventricle strips to glucagon (1–1000 nM), in the absence of IBMX", "value": 40, "unit": "%"}, {"measurement": "Emax of the inotropic response (percent increase in contractility over baseline) of rat right ventricle strips to glucagon (1–1000 nM), in the presence of 30 µM IBMX", "value": 75, "unit": "%"}, {"measurement": "–log EC50 of the positive inotropic response (contractility) of electrically driven rat right ventricle strips to glucagon (1–1000 nM), glucagon alone", "value": "7.1 –log EC50"}]}
